T1: CD73 on the cell surface of Calu6 cells (Homo sapiens, UniProt P21589)
T1 construct: endogenous in cells; host or cells: Calu6
T1 sequence (P21589 27-549): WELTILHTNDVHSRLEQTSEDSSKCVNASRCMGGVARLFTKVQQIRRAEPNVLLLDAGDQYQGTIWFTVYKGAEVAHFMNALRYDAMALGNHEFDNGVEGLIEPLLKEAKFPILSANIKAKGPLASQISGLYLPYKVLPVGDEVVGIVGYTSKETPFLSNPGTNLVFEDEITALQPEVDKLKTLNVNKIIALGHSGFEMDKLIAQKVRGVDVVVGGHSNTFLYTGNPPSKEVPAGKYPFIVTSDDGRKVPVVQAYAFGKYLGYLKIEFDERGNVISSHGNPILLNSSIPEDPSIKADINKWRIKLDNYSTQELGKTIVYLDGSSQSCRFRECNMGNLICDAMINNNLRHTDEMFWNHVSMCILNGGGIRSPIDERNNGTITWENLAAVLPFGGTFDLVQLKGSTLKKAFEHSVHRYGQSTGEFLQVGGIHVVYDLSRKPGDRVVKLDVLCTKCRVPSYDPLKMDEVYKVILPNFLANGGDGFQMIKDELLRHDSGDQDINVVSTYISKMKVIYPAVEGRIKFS

B1: Antibody-drug conjugate 1: 900698 antibody cysteine-conjugated to SN-38 via Mc-VC-PAB-DMEDA-PEG linker, DAR about 7.8 (conjugate)
VH: QVQLVESGGGLVKPGGSLRLSCAASGFTFSKYAMSWIRQAPGKGLEWVAEISSGGGYINYADSVKGRFTISRDNAKNSLYLQMNSLRAEDTAVYYCARAIYYYGSSYNYYAMDYWGQGTTVTVSS
VL: DIQMTQSPSSLSASVGDRVTITCRASQDVGTAEAWYQQKPGKAPKLLIYWASTRHTGVPSRFSGSGSGTDFTLTISSLQPEDFATYYCQQYSSYPLTFGQGTKLEIK
B2: Antibody-drug conjugate 2: 900698 antibody cysteine-conjugated to SN-38 via MP2-VC-PAB-DMEDA-PEG linker, DAR about 7.8 (conjugate)
VH: B1 VH
VL: B1 VL

Assays:
[1] = target: T1, CD73 on the cell surface of Calu6 cells; assay: Induction of endocytosis of CD73 antigen on cell surface (Calu6 cells, flow cytometry); assay type: cell-based; conditions: Example 5, 1 μg/mL, 5 h, 37° C. vs 4° C.
Description: The antibody-drug conjugate 1 and the antibody-drug conjugate 2 prepared in Example 1 and the 900698 naked antibody were diluted to 1 μg/mL with a PBS solution, with 2 replicate wells set up for each concentration. Calu6 cells in the logarithmic growth phase were taken and prepared into a cell suspension at 2×10^5 cells/mL. The cell suspension was then added at 100 μL (about 20000 cells) per well to a 96-well U-bottom plate and centrifuged at 300 g for 3 min, and then the supernatant was discarded. Then, the diluted antigen-binding proteins were each added at 100 μL/well to resuspend the cells, and the mixture was mixed uniformly and incubated at 4° C. for 30 min. […] After the incubation was completed, the cells were washed twice and centrifuged at 300 g for 3 min, and the fluorescence intensity was detected by flow cytometry.
The endocytosis efficiency of monoclonal antibodies 900698 and 900725 was compared through an endocytosis assay, with the procedures as follows: Anti-CD73 antigen-binding proteins such as the CD73 positive control antibody BMS-986179, 900698, and 900725 were diluted to 1 μg/mL with a PBS solution, with 2 replicate wells set up for each concentration. […] After the incubation was completed, the cells were washed twice and centrifuged at 300 g for 3 min, and the fluorescence intensity was detected by flow cytometry. […]

[2] = system: BxPC-3 human pancreatic cancer cells; assay: BxPC3 CDX pancreatic cancer mouse efficacy model; assay type: in vivo, NPG mice; conditions: for inhibition of growth of BxPC-3 pancreatic cancer: 1 mg/kg i.p. BIW, 6 doses, FIG. 7; for inhibitory effect on tumor growth compared with 900698, Oleclumab and Uliledlimab: conjugate 1 mg/kg vs antibodies 5 mg/kg, i.p. BIW
Description: NPG mice were used to establish a BxPC-3 pancreatic cancer animal model for assaying the efficacy of the test antibodies. The BxPC-3 human pancreatic cancer cells used in this example were incubated in an RPMI-1640 medium supplemented with 10% FBS in an incubator at 37° C. with 5% CO2. Before continuous cell culturing for ten generations, 100 μL of PBS containing about 1×10^7 BxPC-3 cells was mixed uniformly with an equal volume of Matrigel. The mixture was then inoculated by subcutaneous injection into 18 NPG mice on the right side of the back near the axilla, with an inoculation volume of about 200 μL. The mice were anesthetized with 2%-5% isoflurane prior to the inoculation. On the day of inoculation, 1.0×10^7 PBMCs (100 μL) were injected via the tail vein. When the tumors grew to an average size of about 50-80 mm^3, the 18 tumor-bearing mice were randomly divided into 3 groups of 6 based on tumor volume and body weight.
Oleclumab is an anti-CD73 monoclonal antibody developed by AstraZeneca, currently in Phase 2 clinical trials. Uliledlimab is an anti-CD73 monoclonal antibody developed by I-Mab Biopharma, currently in Phase 1 clinical trials. The amino acid sequence of the heavy chain of 900543 is as set forth in SEQ ID NO. 45, and the amino acid sequence of the light chain of 900543 is as set forth in SEQ ID NO. 46. The amino acid sequence of the heavy chain of Oleclumab is as set forth in SEQ ID NO. 47, and the amino acid sequence of the light chain of Oleclumab is as set forth in SEQ ID NO. 48. The amino acid sequence of the heavy chain of Uliledlimab is as set forth in SEQ ID NO. 49, and the amino acid sequence of the light chain of Uliledlimab is as set forth in SEQ ID NO. 50.

| Molecule | Endocytosis efficiency (%) [1] | inhibition of growth of BxPC-3 pancreatic cancer [2] | inhibitory effect on tumor growth compared with 900698, Oleclumab and Uliledlimab [2] |
| --- | --- | --- | --- |
| B1 | about 95% | significantly inhibit the growth | superior |
| B2 | about 95% | significantly inhibit the growth | superior |
